PMC8353492

Legend:
[1] = biological target: NOX2 phox complex (rhodamine-tagged cytochrome b558 (gp91 plus p22), p40, p47 and p67), cell-free system (UniProt P04839); test: rhodamine fluorescence intensity over time; fully preactivated (GTP-bound) Rac added to the cell-free NOX2 phox complex with rhodamine-tagged cytochrome b558 (subunits 100 nM), SDS 100 μM; 10 mM MgCl2, 50 mM KCl, 1 mM NaCl, 0.2 mM NADPH, 10 mM GTP, 10 mM Mops pH 7.4
[2] = biological target: NOX2 phox complex (rhodamine-tagged cytochrome b558 (gp91 plus p22), p40, p47 and p67), cell-free system (UniProt P04839); test: rhodamine fluorescence intensity over time; initially inactive (GDP-bound) Rac added to the cell-free NOX2 phox complex with rhodamine-tagged cytochrome b558 after a fraction of preactivated wt Rac (∼2 mol %); SDS 100 μM; assay buffer with NADPH and GTP, pH 7.4; also with H2O2 (unaffected) or ascorbic acid 10 mM (enhanced)

Substance | fold slower binding than wt Rac [1] | fold slower rate of binding than wt Rac [2]
L134R Rac (from UniProt P63000 1-192) (natural protein) | 1.5 fold | 1.5 fold
K132E Rac (from UniProt P63000 1-192) (natural protein) | 1.5 fold | 1.5 fold
